Assay: label from the status in PepcDB records

| Sequence | protein production |
| --- | --- |
| MSDSKSHDPNQMTGAAMIVRAMIDHGVEHIFGYPGGSVLPIYDELFQNSEKLQHILVRHEQGAGHAAEGYARSTGKPGVVLVTSGPGATNMVTPLADALMDSIPIVCITGQVPTHLIGNDAFQECDTVGITRPCTKHNWLVRDIKDLARVLHEAFYVATSGRPGPVVVDVPKDVQFATGTYHPPRKSDVHVSYTPRLKGDPGQIRKAVALLASAKKPVIYSGGGVVNSGEEAWKLLRELVEVTDFPITSTLMGLGAYPASGKNWLGMLGMHGTYESNMTMHDCDVMLCIGARFDDRITGRTDAFSPNSKKIHIDIDPSSINKNIRVDVPIIGDVAHVLADLLAAFKAEAKKADTKAWWLQIAAWRGRNSLAYKKNNDVILPQYAIERLYAATRGRDTYITTEVGQHQMWAAQFYGFERPRRWMTSGGLGTMGYGLPAALGVQVAHPDSLVIDIAGDASVQMTMQEMATAVQYELPIKIFILNNQYMGMVRQWQQLLHGNRLSHSYTEAMPDFVKLADAYGGVGMQVFKPSDLDGAIQDMIKVKKPVLFDCRVASLENCFPMIPSGKAHNEMLLPSEANDETTAAAFAGGGALV | failed |
| MQAVLNFPDLSPELFSISLFGMEFALRWYALAYIAGIVIAWRLAVLATRRAALWPANTPPMAPARIEDLLTWIILGVILGGRLGFVLFYQPAYYLANPTEILMVWQGGMAFHGGLLGVVIAAWLYSLRHNIPKLSLADLITHTVAPGLLLGRLANFINAELWGRPSDLPWAVIFPGPAAQACPGVVGLCARHPSQLYEAALEGLLLGTLLLWLVWRRGALKRPGLITGVFLAGYGLSRFVVEFFRQPDAQFVTPGNPLGLAWQVGEYGLTMGQLLSLPMIALGLWFVLRARAVPA | failed |
| MLKRKLILIAYTLLGLSSPVFSADYITENLSTYMRKGAGDQYKISGAVQAGEKVTVLDRKDRFVLIRDSRNREGWVLASEISQTASPKDLIPQLQQQVQDLSSKLGKIDADWQQRTLEMQRRSQQAEQQSSQLLDQNAQLKRELDILKNKNRDLETMHDSAKREIVIQWFIYGGSVLAVGLLLGLIIPFILPRRKRHNGWS | failed |
| MIHRRCVGGRRNHGGRVAQGSSRSRLPQQGTPVTMSSTSSTPPWNVQRLPGADGRVFLVTGGNAGIGYFVAEQLSATGATVVLGSRNPAKAEAATASIRARVPGSRVRAVRLDLADLSSLETAVESLEVERLDAVVHNAGVALDDPPREETGDGHELMFGTNHLGHFALTQWLMPLLSAAPAARVVTMGSFAAKSERLDLDDLQSRKDYQPKRTYGRSKLAQMYFGVELDRRLRAAGSTVASVVVHPGGALDSLTPSRPPVHVRSTGARLSAAPAALLLQGKHAGAWPAVRAVLDPAVRGGQLWGPRVFGLRGEPRREPVWDHLADPSVAARLWDASCDLMGTDLSTISG | failed |
| MDRNGANMLDGRVESDAKGSFRKDYTKMENNNNGANISDGIYRIIRSFKSFSHFFIRYEEETKEREAEMEIGFPTDVKHLSHIGVDGTMTTFDNTSSSFPFSGFHLTGTVV | failed |
| MSRMMPARVRSEGIALYAKGFLNDPIETDFKLTAEIDGEEVSYDLDGAQDSCTCAVFQQNHRYCKHIAAIEEYLKNQDKGSQETKDKEIKGAERALFGENVAFLDAVNGETQLNFNTDQYSIEVQIEDNSQLYDYFSMDYFLYFDLKLRSKNLGRSYVIKDIPYFLRALKNYSQYSLGSLHYIDLFFDNFDEASQEFLTFLLKIDSKSDEALTKSLYIKNGRYLNIPFLFLEEAMDLVSALENYQLQITGRTVNYFTFIALDNDSEIFKFKVESQQDYIELKLYSEDYHNFYDYSLLYANNVFYKLNQEQRRLLLVLDKQFAKKSQIKFSYADKDKLAQALQQLSTLGEIEAPDHFVVRPFDAKFTFDLLEDQTISLAMTFDYGSFSIDSFHDLETLEFSRDLRKEQKIFALMERLQFAKAFNSSLNIPENLSEHFFLKILPAFQKLGQIELSPTLRNMRMDEVPEIHIDSQGGLLDISFDIPQVEDGEFANVIAKLQENAEFYISESGKFYHFNEKFDRLKAALNELDDQFVIQGSSLHVNINRSFQISKIFENIGGASFSEKFKSLYQHLTHPEEFPYEKPEHIKASLRSYQETGVRWMSMLSHYNLGGILADDMGLGKTVQAITFILSNLKKDESVLITAPASLTYNWASEFEKFTDEIDFAVIDGTKAERSKEIQEKHQIYITSYGSFLKDFEDYQDKKLNYLLLDEAQVVKNYSSKTNKSLSALNVEHTFALSGTPLENRIEEIWAIFQVVMPGFLPKREKFNKMEPSVISRLIQPFIMRRKKEDVLEELPEKMEITVYNQLADDQKVIYLAQLELMQKQVLEMDSAALSRSRIEILAGITRLRQICNTPALFMDDYKGSSGKLERLRELLAQIKDSGHRPLIFSQFTKVFPHIEKLMEEQEMTAYKLTGSTPIKDRLSMVQAFNAGSRDAFLVSLKAGGVGLNLTSADVVILVDLWWNPAVEEQAIARAHRMGQKNTVEVIRLITKGTIEEKIMEIQERKKDLIANVLEGDTVDKVLSEAEIREILGV | failed |
| MGHHHHHHSHMPRGPAGEAGASPPVRRVRVVKQEAGGLGISIKGGRENRMPILISKIFPGLAADQSRALRLGDAILSVNGTDLRQATHDQAVQALKRAGKEVLLEVKFIREVT | failed |
| TDRARRVIVLAQEEARGLNHNYIGTEHILLGLIHEGEGVAAKALESMGISLEAVRQEVEEIIGHGSEPPAGHIPFTPRAKKVLELSLREGLQMGHKYIGTEFLLLGLIREGDGVAAQVLVKLGADLPRVRQQVIQLLSGYEGGESPENNNEGEAVGAG | failed |
| MPGRKRKLAAKTAELAPEAGEGSESTSLVGSADASASTAAGVAHTEQQEMPSGGLHESFLESIPPAASFLEELAWVESLASPSYVAYLCQMRRFDDVVAQRRLTTLQRWRQDPAYRQHVSQPIALFFLEQLCSAEFREALRHPAVAALYERQVDLYRRCYGNLLNTGESRVLR | not failed |
| MKNPAEIDVADQQRLESMAVGGLIGFRTLLYKEVLRFWKVSFQTVAAPVLTAVLYLLIFGHVLEDRVRVYDQISYTAFLVPGLVMMSVLQNAFANSSSSLIQSKITGNLVFILLPPLSHWEMFGAYVVASIIRGLCVGLGVLLVTAWFANLHFAHIGWILVFGLMGAGILGTLGLIAGIWAEKFDQLAAFQNFLIMPATFLSGVFYSIHSLPAFWQAVSHANPFFYMIDGFRYGFFGVSDVPPLQSLAVVVVAFVVLAALALRLLRNGYKLRY | failed |
| MSGAVPETPYHQRWLAFPDAVSSYRPLESRLAGTSRATADNRTPCTGRLGTPRVFLMATDDVSKAYSSPTFDAEALLGTVISAEDPDRVLIEPWATGVDGVILDVGSGTGRWTGHLASLGHQIEGLEPATRLVELARQTHPSVTFHHGTITDLSDSPKRWAGLLAWYSLIHMGPGELPDALVALRMAVEDGGGLLMSFFSGPSLEPMYHPVATAYRWPLPELAQALETAGFQVTSSHWDPRFPHAYLTAEASKQNLALEHHHHHH | failed |
| MAESTQMEVETATEGTVPLPPKPTFKPLKAHEMSDGKVQFRKIAVPPNRYSPLKKAWLDIYTPIYDQMKVDIRMNLKARKVELKTRADTPDISNLQKSADFVHAFMLGFDIPDAISLLRMDELYVESFEIKDVKTLKGEHLSRAIGRLSGKGGKTKFAIENSTKTRIVIADTRIHILGAFSNIKVARSSLCSLIMGSPAGKVYSKLRSVSARLNE | failed |
| MLFDTSPKDNRKDFFDREKEIEKLKGLRAPITLVLGLRRTGKSSIIKIGINELNLPYIYLDLRKFEERNYISYKDFLLELQKEINKLVKRLPSLLKALKNIQGIVIMGNEIKFNWNRKDRLSFANLLESFEQASKDNVIIVLDEAQELVKLRGVNLLPALAYAYDNLKRIKFIMSGSEMGLLYDYLRVEDPESPLFGRAFSTVELKPFSREEAIEFLRRGFQEADIDFKDYEVVYEKIGGIPGWLTYFGFIYLDNKNLDFAINQTLEYAKKLILKEFENFLHGREIARKRYLNIMRTLSKCGKWSDVKRALELEEGIEISDSEIYNYLTQLTKHSWIIKEGEKYCPSEPLISLAFS | not failed |
| SPMPAGRPRFLRSMALSSQTREWLEKGMPTEAEAGVPIRLQERAANTAPQARAEERHTQPADAAAPHARAERGRTLQAPASTSPLYTGAVPRANRIVQQLVEAGADLANIRTMFRNMLRGEEMILSRAEQNVFLQHFPDMLPCGIDRNSELAIALREALRRADSQQAARAPARTPPRSS | not failed |
| MDGMGTLTRYLEEAMARARYELIADEEPYYGEIPDLPGVWATGKSLKECEANLQAALEDWLLFLLSRGETPPPLGEVRIELPHGEAA | not failed |
| KRGRSVLVLDHAKKPGRKILISGGGRCNFTNYDVSASNYLCQNPHFVKSALSQYTNWDFISMVSKHGIEFEERDHGQLFCVDAFTAKDIVKMLLAECDMPNIQQRYQCDVHTIEKTEEGFRLHAGTEPVECESLVVATGGLSMPKLGATPFGYKVAEQ | failed |
| MKIKAVGAYSAKQPLEPMDITRREPGPNDVKIEIAYCGVCHSDLHQVRSEWAGTVYPCVPGHEIVGRVVAVGDQVEKYAPGDLVGVGCIVDSCKHCEECEDGLENYCDHMTGTYNSPTPDEPGHTLGGYSQQIVVHERYVLRIRHPQEQLAAVAPLLCAGITTYSPLRHWQAGPGKKVGVVGIGGLGHMGIKLAHAMGAHVVAFTTSEAKREAAKALGADEVVNSRNADEMAAHLKSFDFILNTVAAPHNLDDFTTLLKRDGTMTLVGAPATPHKSPEVFNLIMKRRAIAGSMIGGIPETQEMLDFCAEHGIVADIEMIRADQINEAYERMLRGDVKYRFVIDNRTLTD | not failed |
| MWPVVALTLFVVTFGFVLGGLVVGGKVQARPVSFLLFSGLFLFSSFFGMLVSLFTTGWFPFRLLDVVIVALCFVFIVSCFMRFHPTFGFFQFDGRANMILFAVISFFLGLQLGMLGWRTFFILFLALVFTAGLFAGGVFQVRAVMKFYSRQPSFHFLPLIWLLFATVLKLL | failed |
| MRDFLKLLKKHDELKIIDTPLEVDLEIAHLAYIEAKKPNGGKALLFTQPIRKEHDQIKTFGMPVLMNAFGSFKRLDLLLKTPIESLQQRMQAFLHFNAPKNFTEGLKVLKDLWDLRHIFPKKTTRPKDLIIKQDKEVNLLDLPVLKTWEKDGGAFITMGQVYTQSLDHQKKNLGMYRLQVYDKNHLGLHWQIHKDSQLFFHEYAKAKVKMPVSIAIGGDLLYTWCATAPLPYGIYELMLYGFMRGKKARVMPCLSNSLSVPSDCDIVIEGFVDCEKLELEGPFGDHTGYYTPIEPYPVLEVKTISYKKDSIYLATVVGKPPLEDKYMGYLTERLFLPLLQMNAPNLIEYYMPENGVFHNLILAKIHTRYNAHAKQVMHAFWGVGQMSFVKHAIFVNEDAPNLRDTNAIIEYILENFSKENALISQGVCDALDHASPEYAMGGKLGIDATSKSNTPYPTLLNDSALLALLQDKMQNIVLLKQYYPHTRNPICVISVEKKDKSVIELAKNLLGFEEHLRIVIFVEHASNDLNNPYMLLWRIVNNIDARRDILTSKHCFFIDATNKGVMDKHFREWPTETNCSMEVIENLKKKGLLKDFETLNQKFHLTHSFSTHKEDL | failed |
| MSQIFVVFSSDPEILKEIVREIKRQGVRVVLLYSDQDEKRRRERLEEFEKQGVDVRTVEDKEDFRENIREIWERYPQLDVVVIVTTDDKEWIKDFIEEAKERGVEVFVVYNNKDDDRRKEAQQEFRSDGVDVRTVSDKEELIEQVRRFVRKVGSLEHHHHHH | not failed |
| MNIRIAEELDVPALAELYQTTVLAVAPQHYSPEQTQMWASFASDTDNFQKFILNATTFIATDERGILGFAGITEDGHVTATYVRSDLIRQGIGSILMEKILEYAHLHKIRRLYAEASEFSLGLFQKFGFHIYDTEIVNRQGVLFRRYIVERS | failed |
| METLSNSILTVQIAEHGAELQSIKKDGKEYLWQGDAKFWGRRSPVLFPIVGRVWNNKYRHAGNTYEIGQHGFARDMDFKLTYKEDKGAVYWLESTPDTLGKFPFPFRLLVGYLLEENKITVKWRVENLGAMDMYFQIGAHPAFYFPEFDAATKDRGFFVFDRKSDLEYIMPTEKGCVSPERHVLKLNKEGLMPIDIHTFDCDTYIFDNKQLKKITLLDKKKKPHISLEFNSPLVALWSPTKTHPDCPFVCIEPWYGRCDSVGYSGELKDREWIQKLEPKETFDVEYKIIIE | failed |
